Source: patent publication US20100041597A1 (published 2010)

T1: PKC-ε (purified isoform) (Homo sapiens (Human), UniProt Q02156 1-737)
T1 construct: also called PKC-epsilon; PKCepsilon
T1 sequence: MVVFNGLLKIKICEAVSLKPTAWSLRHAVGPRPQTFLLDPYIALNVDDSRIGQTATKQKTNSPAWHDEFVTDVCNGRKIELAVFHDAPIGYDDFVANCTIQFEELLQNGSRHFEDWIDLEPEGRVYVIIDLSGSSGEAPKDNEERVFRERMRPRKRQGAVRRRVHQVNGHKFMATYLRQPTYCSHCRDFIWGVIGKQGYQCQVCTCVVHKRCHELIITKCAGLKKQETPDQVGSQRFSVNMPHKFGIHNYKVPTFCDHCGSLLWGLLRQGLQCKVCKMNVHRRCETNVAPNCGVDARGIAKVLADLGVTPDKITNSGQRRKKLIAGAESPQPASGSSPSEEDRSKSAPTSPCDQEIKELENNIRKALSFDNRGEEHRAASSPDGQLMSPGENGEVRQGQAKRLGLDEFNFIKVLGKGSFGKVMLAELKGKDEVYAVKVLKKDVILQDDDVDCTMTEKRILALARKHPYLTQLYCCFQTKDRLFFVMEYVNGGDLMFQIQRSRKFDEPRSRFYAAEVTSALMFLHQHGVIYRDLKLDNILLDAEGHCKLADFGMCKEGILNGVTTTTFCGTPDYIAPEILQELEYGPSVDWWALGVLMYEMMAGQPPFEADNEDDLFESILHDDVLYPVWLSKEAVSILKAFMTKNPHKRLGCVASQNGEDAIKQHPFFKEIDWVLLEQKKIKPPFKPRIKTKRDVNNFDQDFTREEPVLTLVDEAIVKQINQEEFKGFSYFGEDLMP

T2: PKC-ζ (purified isoform) (Homo sapiens (Human), UniProt Q05513 1-592)
T2 construct: also called PKC-zeta; PKCzeta
T2 sequence: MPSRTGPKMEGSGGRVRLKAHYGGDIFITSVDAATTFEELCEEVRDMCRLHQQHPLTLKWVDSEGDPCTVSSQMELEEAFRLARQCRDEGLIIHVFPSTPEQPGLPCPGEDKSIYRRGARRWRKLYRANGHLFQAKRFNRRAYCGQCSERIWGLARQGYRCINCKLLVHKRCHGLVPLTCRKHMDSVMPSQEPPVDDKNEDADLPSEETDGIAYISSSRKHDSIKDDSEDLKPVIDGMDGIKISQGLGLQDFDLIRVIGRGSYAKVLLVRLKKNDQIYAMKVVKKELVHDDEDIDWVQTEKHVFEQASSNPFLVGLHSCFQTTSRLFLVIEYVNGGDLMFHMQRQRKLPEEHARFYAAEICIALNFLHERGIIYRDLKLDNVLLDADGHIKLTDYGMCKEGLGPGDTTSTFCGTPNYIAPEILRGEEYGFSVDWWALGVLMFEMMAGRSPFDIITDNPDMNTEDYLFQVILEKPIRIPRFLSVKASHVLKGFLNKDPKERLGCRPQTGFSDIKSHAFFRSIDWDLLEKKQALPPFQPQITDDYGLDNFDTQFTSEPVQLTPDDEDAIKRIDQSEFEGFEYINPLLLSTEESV


Tests used:
PKC-α (purified isoform) [1] = target: T3, PKC-α (purified isoform) (Homo sapiens (Human), UniProt P17252 2-672); assay: competitive ELISA on purified PKC-α vs anti-PKC-α Ab; PRE 100 µM
T3 construct: also called PKC-alpha; PKCalpha
Procedure: (§1) Greiner 96 well ELISA plates were coated with the appropriate PKC isoform diluted in PBSN (PBS with Calcium/Magnesium+0.05% Sodium azide w/w). 50 μL/well at 250 ng/mL was used. Control wells contained PBSN only. Plates were incubated overnight at 4° C.
(§2) After incubation, 5 μL of 1.1:400 anti-PKC (isoform specific antibody) was added per well (to provide a final concentration of 1:4000). For PKC-epsilon, 1.1:800 dilution was used and for PKC-zeta a 1.1:100 dilution was used due to high and low binding affinity, respectively. The plates were then incubated 1 h at room temperature, followed by washing with dH₂O as described above.
(§3) 50 μL of 1:1000 dilution of Alkaline Phosphatase (AP) conjugated antibody (anti-rabbit for all except zeta, which was anti-goat) was then added and the plate incubated for 1 h at room temperature. Washing with dH₂O was then repeated. Finally, 100 μL of pNPP solution in pNPP buffer (2 mM MgCl₂, 100 mM Sodium bicarbonate in water, pH 9.8) was added to all wells and incubated for 8 minutes for α, βI, βII ε, and ζ, or for 15-20 mins for […] (until sufficient coloration is observed). The reaction was stopped by addition of Stop solution (2N NaOH) and the absorbance at 405 nm was read on a Galaxy Plate reader.

PKC-α (purified isoform) [2] = target: T3, PKC-α (purified isoform); assay: competitive ELISA on purified PKC-α vs anti-PKC-α Ab; PRE 50 µM
Procedure: as §1
(§4) The plates were washed 3 times with 200 μL of dH₂O per well, then 100 μL of blocking solution was added per well and the plate incubated for 1 h at 37° C. The washing steps with dH₂O were repeated and 50 μL of the appropriate PRE solution (PRE stock solution [20 mM in DMSO] diluted in PBSN) was added and the plate incubated for 1 h at room temperature.
as §3

PKC-α (purified isoform) [3] = target: T3, PKC-α (purified isoform); assay: competitive ELISA on purified PKC-α vs anti-PKC-α Ab; PRE 200 µM
Procedure: as §1, §2, §3

PKC-ε (purified isoform) [4] = target: T1, PKC-ε (purified isoform); assay: competitive ELISA on purified PKC-ε vs anti-PKC-ε Ab; PRE 50 µM
Procedure: as §1, §4, §3

PKC-ζ (purified isoform) = target: T2, PKC-ζ (purified isoform); assay: summary grade, purified isoform ELISA
PKC-ε (purified isoform) [5] = target: T1, PKC-ε (purified isoform); assay: competitive ELISA on purified PKC-ε vs anti-PKC-ε Ab; PRE 200 µM
Procedure: as §1, §4, §3

Binder	binding capacity (%) (PKC-α (purified isoform) [1])	binding capacity (%) (PKC-α (purified isoform) [2])	binding capacity (%) (PKC-α (purified isoform) [3])	binding capacity (%) (PKC-ε (purified isoform) [4])	binding result (PKC-ζ (purified isoform))	binding capacity (%) (PKC-ε (purified isoform) [5])
Ac-KDAQNLIGISI-NH2 (Synthetic peptide; also called peptide PRE 4) [PRE 4]	21.9	6.46	22.8	–	–	–
Ac-RDAQNLIGISI-NH2 (Synthetic peptide; also called peptide PRE 11) [PRE 11]	5.96	0	13.3	2.25	no binding (tested: 200 µM)	9.84
Ac-ISIGILQNADK-NH2 (Synthetic peptide (retro form of PRE 4); also called peptide PRE 7) [PRE 7]	6.72	0	6.59	8.04	–	3.78
Ac-KDAQNLI-NH2 (Synthetic peptide; also called peptide PRE 12; Ac-KDAQNLI-NH2) [PRE 12]	5.16	3.29	0	10.4	–	0
Ac-KDANQLIGISI-NH2 (Synthetic peptide; also called peptide PRE 6) [PRE 6]	–	–	–	–	no binding (tested: 200 µM)	–

Continued, values first:

binding capacity (%) (PKC-α (purified isoform) [1])	binding capacity (%) (PKC-α (purified isoform) [2])	binding capacity (%) (PKC-α (purified isoform) [3])	binding capacity (%) (PKC-ε (purified isoform) [4])	binding result (PKC-ζ (purified isoform))	binding capacity (%) (PKC-ε (purified isoform) [5])	Binder
–	–	–	0	no binding (tested: 200 µM)	0.85	Ac-RDAQNLI-NH2 (Synthetic peptide; also called peptide PRE 13; Ac-RDAQNLI-NH2) [PRE 13]
26.5	17.5	22.6	34	–	31	Ac-AKGIQEVKGGDAQNLIGISI-NH2 (Synthetic peptide; also called peptide PRE 3) [PRE 3]
